Results published in paper PMC5650471.

Target: wild-type human ADORA2A adenosine A2A receptor (construct terminated at residue 316, N154Q, C-terminal 8x His and Protein C tags) (human) (UniProt P29274)
Sequence of UniProt P29274 (P29274 1-316 N154Q): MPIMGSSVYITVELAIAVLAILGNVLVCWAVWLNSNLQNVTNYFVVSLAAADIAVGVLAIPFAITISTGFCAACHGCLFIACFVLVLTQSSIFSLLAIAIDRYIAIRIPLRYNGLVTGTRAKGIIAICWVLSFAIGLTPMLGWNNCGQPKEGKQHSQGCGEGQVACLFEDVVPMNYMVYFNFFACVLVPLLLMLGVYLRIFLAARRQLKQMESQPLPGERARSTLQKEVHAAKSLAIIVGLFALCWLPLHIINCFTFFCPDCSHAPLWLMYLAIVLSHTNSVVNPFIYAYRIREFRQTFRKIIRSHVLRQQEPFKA

[35S]GTPγS binding to perdeuterated purified A2AR reconstituted with purified Gs heterotrimer in phospholipid vesicles; reduction of basal activity by inverse agonist ZM241385: 50%
[35S]GTPγS binding to perdeuterated purified A2AR reconstituted with purified Gs heterotrimer in phospholipid vesicles; stimulation by saturating full agonist NECA: 8 fold
Substance: Gs heterotrimer (complex)
